The results in this text go back to patent US20230235070A1 (Pfizer, published 2023).

The test addresses T1, TNF-like ligand 1A (TL1A) (human, UniProt O95150 72-251).
T1 construct: Endogenous protein measured in patients' serum and biopsies by immunoprecipitation LC-MS/MS; also called TNFSF15; soluble TL1A
T1 sequence (looked up): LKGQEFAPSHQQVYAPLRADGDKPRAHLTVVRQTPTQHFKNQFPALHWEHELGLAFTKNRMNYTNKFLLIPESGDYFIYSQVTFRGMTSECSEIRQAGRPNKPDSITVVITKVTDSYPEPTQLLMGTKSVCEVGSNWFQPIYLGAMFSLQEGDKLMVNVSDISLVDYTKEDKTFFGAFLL
The test is described as follows: total soluble TL1A in serum of treated participants, immunoprecipitation LC-MS/MS (in vivo target engagement). As to the method:
An Immunoprecipitation LC-MS/MS assay has been developed and validated to measure total soluble TL1A in human serum. Total soluble TL1A is isolated from human serum using immuno-enrichment technology. The samples are incubated and shaken with a biotinylated anti-TL1A capture reagent at 4° C. overnight. Dynabeads MyOne C1 streptavidin-coupled magnetic beads are then added to each sample and incubated at room temperature for 1 h to extract TL1A bound to biotinylated capture antibody. The beads are then washed three times, followed by elution of total TL1A from the beads under acidic conditions. After addition of the extended sequence stable isotope labeled peptide (internal standard) to each sample, trypsin digestion is performed at 37° C. overnight. All sample processing is performed in a 96-well format on an automated liquid handling robot (Microlab STAR, Hamilton, Bonaduz, Switzerland). A 120 μL of the sample extract is injected onto a three-dimensional Dionex Ultimate 3000 nano-LC system, comprising a conventional flow immunoaffinity capture with custom 2.1 mm ID anti-peptide antibody column, and elution to 300 μm ID C18 trap column and 75 μm ID nano LC analytical column. […] One selected reaction monitoring transition for the signature peptide is used to quantify TL1A in the positive ion mode, and all data are normalized to the internal standard response. […]

B1: PF-06480605 (antibody, human IgG1, kappa, V domains shown)
VH: QVQLVQSGAEVKKPGASVKVSCKASGYDFTYYGISWVRQAPGQGLEWMGWISTYNGNTHYARMLQGRVTMTTDTSTRTAYMELRSLRSDDTAVYYCARENYYGSGAYRGGMDVWGQGTTVTVSS
VL: EIVLTQSPATLSLSPGERATLSCRASQSVSSYLAWYQQKPGQAPRLLIYDASNRATGIPARFSGSGSGTDFTLTISSLEPEDFAVYYCQQRSNWPWTFGQGTKVEIKR
notes: The embodiments and claims number differently (1 = VH, 2 = VL, 9 = HC, 10 = LC); also called anti-TL1A
On to B1, for which the binding result was “binds”.
